The target of experiment [1] is D3H44 light chain Q124E_Q160E_T178E (Kabat) with N-terminal HA or FLAG tag. As to the kind of experiment: LCCA, SPR read-out of light-chain tags; light-chain DNA 1:3 normalized to 1:1; competing light chain m20.
Experiment [2] deals with D3H44 light chain S131E (Kabat) with N-terminal HA or FLAG tag. The experiment is described as above.
The target in experiment [3] is D3H44 light chain Q124E_Q160E_T180E (Kabat) with N-terminal HA or FLAG tag. The experiment is described as above.
For experiment [4], the target named is D3H44 light chain Q124E_T178E (Kabat) with N-terminal HA or FLAG tag. Described as above.
The target of experiment [5] is D3H44 light chain Q124R_Q160K_T178R (Kabat) with N-terminal HA or FLAG tag. Briefly: LCCA, SPR read-out of light-chain tags; light-chain DNA 1:3 normalized to 1:1; competing light chain m17.
Experiment [6] has as its target D3H44 light chain Q124E_V133E_Q160F (Kabat) with N-terminal HA or FLAG tag. As to the kind of experiment: LCCA, SPR read-out of light-chain tags; light-chain DNA 1:3 normalized to 1:1; competing light chain m23.
The target of experiment [7] is D3H44 light chain Q124R_Q160K_T178R (Kabat) with N-terminal HA or FLAG tag. Briefly: LCCA, SPR read-out of light-chain tags; light-chain DNA 1:3 normalized to 1:1; competing light chain m25.
The target is the same in experiment [8]. As to the kind of experiment: LCCA, SPR read-out of light-chain tags; light-chain DNA 1:3 normalized to 1:1; competing light chain m30.
The target is the same in experiment [9]. Briefly: LCCA, SPR read-out of light-chain tags; light-chain DNA 1:3 normalized to 1:1; competing light chain m27.
Experiment [10] deals with D3H44 light chain Q124R (Kabat) with N-terminal HA or FLAG tag. As to the kind of experiment: LCCA, SPR read-out of light-chain tags; light-chain DNA 1:3 normalized to 1:1; competing light chain m24.
Experiment [11] addresses D3H44 light chain Q124E_Q160E_T180E (Kabat) with N-terminal HA or FLAG tag. As to the kind of experiment: LCCA, SPR read-out of light-chain tags; light-chain DNA 1:3 normalized to 1:1; competing light chain m16.
Experiment [12] has as its target D3H44 light chain Q124R_T178K (Kabat) with N-terminal HA or FLAG tag. Briefly: LCCA, SPR read-out of light-chain tags; light-chain DNA 1:3 normalized to 1:1; competing light chain m17.
Experiment [13] addresses D3H44 light chain Q124K_T178R (Kabat) with N-terminal HA or FLAG tag. The description is as above.
Experiment [14] deals with D3H44 light chain T178R (Kabat) with N-terminal HA or FLAG tag. Described as above.
The target in experiment [15] is D3H44 light chain Q124E_Q160E_T180E (Kabat) with N-terminal HA or FLAG tag. As to the kind of experiment: LCCA, SPR read-out of light-chain tags; light-chain DNA 1:3 normalized to 1:1; competing light chain m18.
The target of experiment [16] is D3H44 light chain Q124E_T180E (Kabat) with N-terminal HA or FLAG tag. The description is as above.
Experiment [17] concerns the target D3H44 light chain Q124E_Q160E_T180E (Kabat) with N-terminal HA or FLAG tag. As to the kind of experiment: LCCA, SPR read-out of light-chain tags; light-chain DNA 1:3 normalized to 1:1; competing light chain m26.
The target in experiment [18] is D3H44 light chain T178R (Kabat) with N-terminal HA or FLAG tag. Briefly: LCCA, SPR read-out of light-chain tags; light-chain DNA 1:3 normalized to 1:1; competing light chain m19.
Experiment [19] addresses D3H44 light chain Q124E_S131T_T178F_T180E (Kabat) with N-terminal HA or FLAG tag. As to the kind of experiment: LCCA, SPR read-out of light-chain tags; light-chain DNA 1:3 normalized to 1:1; competing light chain m20.
For experiment [20], the target named is D3H44 light chain Q124E_S131T_T178Y_T180E (Kabat) with N-terminal HA or FLAG tag. Described as above.
In experiment [21] the target is D3H44 light chain Q124E_S176L_T180E (Kabat) with N-terminal HA or FLAG tag. The description is as above.
Experiment [22] deals with D3H44 light chain Q124R_Q160K_T178R (Kabat) with N-terminal HA or FLAG tag. Briefly: LCCA, SPR read-out of light-chain tags; light-chain DNA 1:3 normalized to 1:1; competing light chain m28.
Experiment [23] has the same target. Briefly: LCCA, SPR read-out of light-chain tags; light-chain DNA 1:3 normalized to 1:1; competing light chain m22.
For experiment [24] the target is unchanged. As to the kind of experiment: LCCA, SPR read-out of light-chain tags; light-chain DNA 1:3 normalized to 1:1; competing light chain m29.
For experiment [25], the target named is D3H44 light chain Q124R_T178R (Kabat) with N-terminal HA or FLAG tag. As to the kind of experiment: LCCA, SPR read-out of light-chain tags; light-chain DNA 1:9 normalized to 1:1; competing light chain m17.
For experiment [26] the target is unchanged. Briefly: LCCA, SPR read-out of light-chain tags; light-chain DNA 1:3 normalized to 1:1; competing light chain m17.
For experiment [27] the target is unchanged. As to the kind of experiment: LCCA, SPR read-out of light-chain tags; light-chain DNA 1:3 normalized to 1:1; competing light chain m22.
The target of experiment [28] is D3H44 light chain Q124E_S131T_T178F_T180E (Kabat) with N-terminal HA or FLAG tag. Briefly: LCCA, SPR read-out of light-chain tags; light-chain DNA 1:3 normalized to 1:1; competing light chain m21.
The target of experiment [29] is D3H44 light chain Q124E_Q160E_T180E (Kabat) with N-terminal HA or FLAG tag. The description is as above.
For experiment [30] the target is unchanged. Briefly: LCCA, SPR read-out of light-chain tags; light-chain DNA 1:9 normalized to 1:1; competing light chain m21.
For experiment [31], the target named is D3H44 Fab heavy chain L143A_Q179K. As to the kind of experiment: LCCA, L1:L2 DNA 1:3 normalised to 1:1, SPR of light chain tags; competitor m33.
In experiment [32] the target is D3H44 Fab heavy chain L143E_K145T_S188L. Described as above.
Experiment [33] addresses D3H44 Fab heavy chain L143E_K145T. Briefly: LCCA, L1:L2 DNA 1:3 normalised to 1:1, SPR of light chain tags; competitor m32.

This passage reports H1L1:H1L2 normalized median ratio, H1L1:H1L2 normalized median scalar value ln(r1/f1) and H2L2:H2L1 normalized median ratio results from patent US11306156.

Values joined by “and” are separate entries in the source; they are usually repeats but may differ in a detail not shown here. Identical values can stand only once.

For “D3H44 Fab heavy chain L143E_K145T (Kabat) with C-terminal ABD2-His6 tag”, the H1L1:H1L2 normalized median ratio in experiment [1] came out at 41%; in experiment [2] it was 53%; in experiment [3], 28%; in [4], 41%; in experiment [5], 72%; in experiment [6], 15%. In addition, the H1L1:H1L2 normalized median ratio in [7] was 59%; in [8], 47%; in experiment [9], 59%; in experiment [10], 85%. In addition, the H1L1:H1L2 normalized median scalar value ln(r1/f1) in experiment [5] was 0.95 and 0.96; in [7], 0.37; in experiment [8], -0.14; in [9], 0.36; in experiment [10] it was 1.75.
In the case of “D3H44 Fab heavy chain L143E_K145T_Q179E (Kabat) with C-terminal ABD2-His6 tag”, the H1L1:H1L2 normalized median ratio is 12% and 17% in experiment [11]; 16% in experiment [3]; 83% in [12]; 88% in [13]; 89% in [14]; 84% in [5]. Also, the H1L1:H1L2 normalized median ratio was determined as 11% in experiment [15], 40% in experiment [16], 17% in [17] and 60% in experiment [18]. Further, the H1L1:H1L2 normalized median scalar value ln(r1/f1) in experiment [12] worked out at 1.62; in experiment [13], 2; in experiment [14] it was 2.14; in [5] it was 1.65; in experiment [18], 0.41.
Turning to “D3H44 Fab heavy chain L143E_K145T_S188L (Kabat) with C-terminal ABD2-His6 tag”, the H1L1:H1L2 normalized median ratio in [19] is 41%; in [20], 26%; in experiment [21] it was 43%; in experiment [22], 57%; in experiment [23], 59%; in [24], 74%. For the same substance, the H1L1:H1L2 normalized median scalar value ln(r1/f1) came to 0.28 in [22], 0.37 in experiment [23] and 1.03 in [24].
With “D3H44 Fab heavy chain L143R (Kabat) with C-terminal ABD2-His6 tag”, the H2L2:H2L1 normalized median ratio in experiment [6] worked out at 83%; in experiment [10], 17%.
Turning to “D3H44 Fab heavy chain Q179R (Kabat) with C-terminal ABD2-His6 tag”, the H2L2:H2L1 normalized median ratio in [19] was 96%; in [2] it was 97%; in experiment [23], 4%; in experiment [8] it was 3%.
Turning to “D3H44 Fab heavy chain S186R (Kabat) with C-terminal ABD2-His6 tag”, the H2L2:H2L1 normalized median ratio in experiment [11] amounted to 82%; in [1], 95%; in experiment [19], 90%; in experiment [20], 88%; in [21], 95%; in experiment [3], 80%. Besides, the H2L2:H2L1 normalized median ratio in experiment [4] was determined as 96%; in [25], 14%; in experiment [22], 5%; in experiment [12] it was 17%; in experiment [26], 19%; in experiment [13], 18%. For the same substance, the H2L2:H2L1 normalized median ratio was 28% in experiment [14]; 20% in [5]; 72% in experiment [15]; 96% in experiment [16]; 83% in [17]; 4% in experiment [18]. For the same substance, the H2L2:H2L1 normalized median ratio stood at 10% in experiment [27]; 10% in [23]; 12% in experiment [24]; 90% in experiment [28]; 81% in [29]; 5% in [7]. Besides, the H2L2:H2L1 normalized median ratio in experiment [30] was determined as 86%; in experiment [9], 4%.
As for D3H44 light chain Q124E_V133Y_T180E, in [31], the H1L1:H1L2 normalized median ratio is 96% and the H1L1:H1L2 normalized median scalar value ln(r1/f1) came to 3.13. Further, in [32], the H2L2:H2L1 normalized median ratio was 44%.
Take D3H44 light chain Q124R_T178R: in [33], the H1L1:H1L2 normalized median scalar value ln(r1/f1) was -0.16.
